From publication PMC9270183 (The Journal of Experimental Medicine, 2022)

molecular target: T1, 417N/484K/501Y RBD mutant (SARS-CoV-2, Wuhan-Hu-1 RBD backbone …, 417N | 484K | 501Y); assay: BLI; conditions: both partners purified
T1 construct: also called RBD KEN

Binder	Kd
V003 (antibody, V domains shown, IgG; donor BRA13; source: recombinant monoclonal IgG, produced and purified as previously described) VH: EVQLVQSGAEVKKPGESLKISCLGSGYSFTSYWIGWVRQMPGKGLEWMGIIFPADSDTRYSPSFQGQVIISADKSISTAYLQWSSLKASDTAMYYCARLREFGDYYYYGMDVWGQGTTVTVSS VL: DIQLTQSPSSLSASVGDRVTITCRASQGISSYLAWYQQKPGKAPKLLIYAASTLQSGVPSRFSGSGSGTDFTLTISSLQPEDFATYYCQQLNSYPDFGQGTKLEIK	139 nM
V043 (antibody, V domains shown, IgG; donor BRA15; source: recombinant monoclonal IgG, produced and purified as previously described) VH: QLQLQESGPGLVKPSETLSLTCTVSGGSISSNNYYWGWIRQPPGKGLECIGTIYYSGNTYYNPSLKSRVTISVDTSKNQFSLKLGSVTAADTAVYYCARQQWLRDAFHIWGQGTMVTVSS VL: NFMLTQPHSVSESPGKTVTISCTGSSGSIASNYVQWYQQRPGSAPTIVIYEDNQRPSGVPDRFSGSIDSSSNSASLTISGLKTEDEADYYCQSYDSNIHVVFGGGTKLTVL	4.02 nM
V032 (antibody, V domains shown, IgG; donor BRA14; source: recombinant monoclonal IgG, produced and purified as previously described) VH: QVQLVESGGGVVQPGRSLRLSCAASGFTFSSYGMHWVRQAPGKGLEWVAVISYDGSNKYYADSVKGRFTISRDNSKNTLYLQMNSLRAEDTAVYYCAKVSGPYCSSTSCYTGYWDYWGQGTLVTVSS VL: not shown	27.3 nM
V037 (antibody, V domains shown, IgG; donor BRA15; source: recombinant monoclonal IgG, produced and purified as previously described) VH: EVQLVESGGGLVQPGGSLRLSCAASEVIVSSNYMSWVRQAPGKGLEWVSVLYSGGSTFYADSVKGRFTISRDNSKNTLYLQMNSLRAEDTAVYYCARDLGPMGAFDIWGQGTMVTVSS VL: not shown	0.241 nM
V033 (antibody, V domains shown, IgG; donor BRA14; source: recombinant monoclonal IgG, produced and purified as previously described) VH: QVQLVQSGAEVKKPGASVKVSCKASGYTFTSYGISWVRQAPGQGLEWMGWISAYNGNTNYAQKLQGRVTMTTDTSTSTAYMELRSLRSDDTAVYYCARGRFCSSTSCYRAAPNYYYYYMDVWGKGTTVTVSS VL: NFMLTQPHSVSESPGKTVTISCTRSSGSIASNYVQWYQQRPGSAPTTVIYEDNQRPSGVPDRFSGSIDSSSNSASLTISGLKTEDEADYYCQSYDSSNPYWVFGGGTKLTVL	10.7 nM
V039 (antibody, V domains shown, IgG; donor BRA15; source: recombinant monoclonal IgG, produced and purified as previously described) VH: QVQLQESGPGLVKPSQTLSLTCTVSGGSISSGSYYWSWIRQPAGKGLEWIGRIYTSGSTNYNPSLKSRVTISVDTSKNQFSLKLSSVTAADTAVYYCARADYSDYDNYYFDYWGQGTLVTVSS VL: NFMLTQPHSVSESPGKTVAISCTRSSGSIASNYVHWYQQRPGSSPTTVIYDDNQRPSGVPDRFSGSIDSSSNSASLTISGLKTEDEADYYCQSYDSSNHNWVFGGGTKLTVL	0.542 nM
V042 (antibody, V domains shown, IgG; donor BRA15; source: recombinant monoclonal IgG, produced and purified as previously described) VH: QLQLQESGPGLVKPSETLSLTCTVSGGSISSSTNYWGWIRQPPGKGLEWIGSIDYSGSTYYNPSLKSRVTMSVDTSKNQFSLKLSSVTATDTAMYYCARHVIDDSRGYYPAALDHWSQGTLVTVSS VL: EIVLTQSPATLSLSPGERATLSCRASQSVNNYLAWYQQKPGQAPRLLIYDASNRATGVPARFSGSGSGTDFTLTISSLEPEDFAVYFCQQRSNWPPMYTFGQGTKLEIK	23.3 nM
V038 (antibody, V domains shown, IgG; donor BRA15; source: recombinant monoclonal IgG, produced and purified as previously described) VH: QVQLVQSGAEVKKPGASVKVSCKASGYTFTGYYVHWVRQAPGQGLEWMGWINPNSGGTNFAQRFQGRVTMTRDTSISTAYMELSRLRSDDTAVYYCARGITVYGVAPDAFDIWGQGTMVTVSS VL: DIQMTQSPSSLSASVGDRVTITCQASQDISNYLNWYQQKPGKAPKVLIYDASNLEPGVPSRFSGSGSGTDFTFTISSLQPEDIATYYCQQYDNLITFGQGTRLEIK	2.37 nM
V044 (antibody, V domains shown, IgG; donor BRA15; source: recombinant monoclonal IgG, produced and purified as previously described) VH: QVQLVQSGAEVKKPGASVKVSCKASGYTFTSYDINWVRQATGQGLEWMGWMNPNSGYAGYTQKFQGRITMTRNTSISTAYMELSSLRSEDTAVYFCARISSPTRLDPWGQGTLVTVSS VL: NFMLTQPHSVSESPGKTVTISCSRSRGSIASSFVQWYQQRPGSSPTTVIYDDNQRPSGVPDRFSGSIDSSSNSASLTISGLKTEDEADYYCQSYDSISWVFGGGTKLTVL	3.66 nM
